Laboratory results reported in publication PMC6736995, “Insights Into Enhanced Complement Activation by Structures of Properdin and Its Complex With the C-Terminal Domain of C3b” (Frontiers in Immunology, 2019).
Blank lines part the entries; values can stand above or below the molecule they belong to.

Columns and labels:
[1] = molecular target: C3b (Homo sapiens) (UniProt P01024); details: cited from earlier work
[2] = molecular target: T1, C3b, biotinylated at the free cysteine of the hydrolysed thioester (human, UniProt P01024 23-667; P01024 749-1663, biotin (EZ-Link Maleimide-PEG2-Biotin) on the free cysteine that is generated after hydrolysis of the reactive thioester); assay: SPR; biotinylated C3b on a SensEye P-Strep chip; P^N12/456 injected 1.2 × 10^-3 to 10 μM; low ionic strength, 20 mM HEPES pH 7.4, 0.005% Tween-20, 50 mM NaCl; 25°C; equilibrium end-point fit; details: both partners purified
T1 construct: complement C3 beta chain, human; C3b alpha' chain, human; Coupled to a streptavidin chip through the biotin; also called C3b coated chip; source: generated from C3 (purified from human plasma) with FB and FD, biotinylated, purified by SEC
T1 sequence (P01024 23-667, one chain of several): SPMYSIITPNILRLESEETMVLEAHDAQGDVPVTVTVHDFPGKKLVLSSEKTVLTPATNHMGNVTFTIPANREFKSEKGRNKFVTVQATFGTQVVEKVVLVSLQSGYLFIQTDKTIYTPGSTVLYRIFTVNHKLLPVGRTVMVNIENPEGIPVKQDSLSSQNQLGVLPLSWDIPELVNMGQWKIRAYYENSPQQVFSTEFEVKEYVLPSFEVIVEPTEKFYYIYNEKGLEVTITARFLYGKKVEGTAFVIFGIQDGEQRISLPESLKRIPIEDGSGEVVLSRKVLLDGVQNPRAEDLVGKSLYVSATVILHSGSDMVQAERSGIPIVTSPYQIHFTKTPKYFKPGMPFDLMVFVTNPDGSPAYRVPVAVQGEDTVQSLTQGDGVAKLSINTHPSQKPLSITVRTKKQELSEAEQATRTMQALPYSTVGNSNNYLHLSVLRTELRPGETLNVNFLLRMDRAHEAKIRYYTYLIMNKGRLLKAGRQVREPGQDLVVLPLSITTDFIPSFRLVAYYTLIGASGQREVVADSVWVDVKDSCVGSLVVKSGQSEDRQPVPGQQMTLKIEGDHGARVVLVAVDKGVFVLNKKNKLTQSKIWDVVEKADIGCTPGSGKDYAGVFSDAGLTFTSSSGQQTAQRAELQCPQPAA

[3] = molecular target: T1, C3b, biotinylated at the free cysteine …; assay: SPR; biotinylated C3b on a SensEye P-Strep chip (IBIS-MX96); P^N12/456 injected 4.9 × 10^-3 to 40 μM in 14 2-fold steps; 20 mM HEPES pH 7.4, 0.005% Tween-20, 150 mM NaCl; 25°C; equilibrium end-point fit; details: both partners purified
[4] = molecular target: T2, C3 convertase C3bBb^dgf‡ (human, UniProt P01024 23-667; P01024 749-1663; P00751 260-764, S699A | D279G | N285D, biotin (EZ-Link Maleimide-PEG2-Biotin) on the free cysteine that is generated after hydrolysis of the reactive thioester); assay: SPR; C3bB^dgf‡ or C3bBb^dgf‡ generated on a C3b coated chip before each injection; P^N12/456 injected (2.4 × 10^-4 to 2 μM on C3bB, 1.2 × 10^-4 to 1 μM on C3bBb); 20 mM HEPES pH 7.4, 0.005% Tween-20, 150 mM NaCl, 5 mM MgCl2; 25°C; equilibrium end-point fit; details: both partners purified
T2 construct: complement C3 beta chain, human; C3b alpha' chain, human; In the convertase stability assay (functional rows) the same complex was formed in solution from C3b that was not biotinylated; source: formed on the SPR chip: FB^dgf‡ (100 nM, 5 min) then FD (100 nM, 5 min) over biotinylated C3b, 5 mM MgCl2; copies: + +
T2 sequence (P01024 23-667, stated change not applied, one chain of several): as the sequence (P01024 23-667, one chain of several) above

[5] = molecular target: T3, C3 pro-convertase C3bB^dgf‡ generated on a C3b coated chip (human, UniProt P01024 23-667; P01024 749-1663; P00751 26-764, S699A | D279G | N285D, biotin (EZ-Link Maleimide-PEG2-Biotin) on the free cysteine that is generated after hydrolysis of the reactive thioester); assay: as above; details: both partners purified
T3 construct: complement C3 beta chain, human; C3b alpha' chain, human; source: formed on the SPR chip: 100 nM FB^dgf‡ injected for 5 min over biotinylated C3b, 5 mM MgCl2; copies: + +
T3 sequence (P01024 23-667, stated change not applied, one chain of several): as the sequence (P01024 23-667, one chain of several) above

[6] = molecular target: T1, C3b, biotinylated at the free cysteine …; assay: SPR; formation of C3bB and C3bBb on the chip: 100 nM FB^dgf‡ injected for 5 min over biotinylated C3b, then 100 nM FD for 5 min; buffer with 5 mM MgCl2; 25°C; details: both partners purified
[7] = molecular target: T4, P^N1′/456, biotinylated monomerized properdin (complex of P^N1′ with P^456) (human, UniProt P27918 28-134; P27918 256-469, biotinylated with EZ-Link Maleimide-PEG2-Biotin as described for C3b (site not stated)); assay: SPR; biotinylated P^N1′/456 on a SensEye P-Strep chip; C3/C3b-CTC injected 2.4 × 10^-2 to 200 μM (200 μM point left out as an outlier); 20 mM HEPES pH 7.4, 0.005% Tween-20, 150 mM NaCl; 25°C; equilibrium end-point fit; details: both partners purified
T4 construct: N-terminal Gly-Ser cloning scar from the BamHI site; properdin, human, P^N1′, res; 28-134; includes an additional Cys-Pro (res. 133-134) at the C-terminus of TSR1; C-terminal extension of three alanines from the NotI site; 256-469 (TSR4, TSR5, TSR6); The maleimide-biotin is surmised to sit on a free cysteine at the C-terminus of P^N1′ (Cys132/Cys133); source: HEK293-EBNA, co-expressed, purified …

C3b (Homo sapiens), sequence (P01024 23-667): as the sequence (P01024 23-667, one chain of several) above

Molecule: Properdin single vertices (from UniProt P27918)
Kd [1]: 7.8 µM

Kd [2]: 0.69 ± 0.04 µM
Kd [3]: 6.8 ± 0.2 µM
Kd [4]: 0.034 ± 0.001 µM
Kd [5]: 0.098 ± 0.002 µM
B1: P^N12/456, monomerized properdin (non-covalent complex of P^N12 with P^456) (complex, human)
chain 1: GSDPVLCFTQYEESSGKCKGLLGGGVSVEDCCLNTAFAYQKRSGGLCQPCRSPRWSLWSTWAPCSVTCSEGSQLRYRRCVGWNGQCSGKVAPGTLEWQLQACEDQQCCPEMGGWSGWGPWEPCSVTCSKGTRTRRRACNHPAPKCGGHCPGQAQESEACDTQQVCP
chain 2: GSVAGGWGPWGPVSPCPVTCGLGQTMEQRTCNHPVPQHGGPFCAGDATRTHICNTAVPCPVDGEWDSWGEWSPCIRRNMKSISCQEIPGQQSRGRTCRGRKFDGHRCAGQQQDIRHCYSIQHCPLKGSWSEWSTWGLCMPPCGPNPTRARQRLCTPLLPKYPPTVSMVEGQGEKNVTFWGRPLPRCEELQGQKLVVEEKRPCLHVPACKDPEEEELAAA
modifications: C-mannosylated Trp-ladder tryptophans; O-fucosylation of Thr92 and Thr151 (observed in the structure) | C-mannosylated Trp-ladder tryptophans; O-fucosylation of Thr272; N-glycosylation of Asn428
notes: N-terminal Gly-Ser cloning scar from the BamHI site; properdin, human, P^N12, res; 28-191 (N-terminal STB domain, TSR1, TSR2); stop codon before the NotI site, no alanine extension; 256-469 (TSR4, TSR5, TSR6); C-terminal extension of three alanines from the NotI site; TSR3 (res. 192-255) is absent; source: HEK293-EBNA, co-expressed (1:1 DNA ratio), purified from supernatant (Ni-Sepharose Excel, …)

binding result [6]: binds
B2: catalytically inactive (S699A) double-gain-of-function (D279G, N285D) factor B mutant (enzyme, human, UniProt P00751 26-764, looked up)
chain: TPWSLARPQGSCSLEGVEIKGGSFRLLQEGQALEYVCPSGFYPYPVQTRTCRSTGSWSTLKTQDQKTVRKAECRAIHCPRPHDFENGEYWPRSPYYNVSDEISFHCYDGYTLRGSANRTCQVNGRWSGQTAICDNGAGYCSNPGIPIGTRKVGSQYRLEDSVTYHCSRGLTLRGSQRRTCQEGGSWSGTEPSCQDSFMYDTPQEVAEAFLSSLTETIEGVDAEDGHGPGEQQKRKIVLDPSGSMNIYLVLDGSGSIGASDFTGAKKCLVNLIEKVASYGVKPRYGLVTYATYPKIWVKVSEADSSNADWVTKQLNEINYEDHKLKSGTNTKKALQAVYSMMSWPDDVPPEGWNRTRHVIILMTDGLHNMGGDPITVIDEIRDLLYIGKDRKNPREDYLDVYVFGVGPLVNQVNINALASKKDNEQHVFKVKDMENLEDVFYQMIDESQSLSLCGMVWEHRKGTDYHKQPWQAKISVIRPSKGHESCMGAVVSEYFVLTAAHCFTVDDKEHSIKVSVGGEKRDLEIEVVLFHPNYNINGKKEAGIPEFYDYDVALIKLKNKLKYGQTIRPICLPCTEGTTRALRLPPTTTCQQQKEELLPAQDIKALFVSEEEKKLTRKEVYIKNGDKKGSCERDAQYAPGYDKVKDISEVVTPRFLCTGGVSPYADPNTCRGDAGGPLIVHKRSRFIQVGVISWGVVDVCKNQKRQKQVPAHARDFHINLFQVLPWLKEKLQDEDLGFL
notes: complement factor B, human; also called FB^dgf‡

Kd [7]: 18.6 ± 1.6 µM
B3: C3/C3b-CTC domain (C-terminal C345c domain of C3/C3b) (domain or fragment, human)
chain: GSNCFIQKSDDKVTLEERLDKACEPGVDYVYKTRLVKVQLSNDFDEYIMAIEQTIKSGSDEVQVGQQRTFISPIKCREALKLEEKKHYLMWGLSSDFWGEKPNLSYIIGKDTWVEHWPEEDECQDEENQKQCQDLGAFTESMVVFGCPN
notes: N-terminal Gly-Ser cloning scar from the BamHI site; complement C3, human, CTC (C345c) domain, res; 1517-1663; stop codon before the NotI site, no alanine extension; also called C3b/C3 CTC domain
